The source of these data is paper PMC9359782.

The test has as its target Human immunoglobulin G (IgG) (human). The test can be described thus: LSPR.

On to “Bovine serum albumin (from UniProt P02769 25-607) (natural protein)”, for which the LLSPR wavelength shift was < 1 nm.
